Here are results for two molecules from PMC9958104, “Arabidopsis histone H3 lysine 9 methyltransferases KYP/SUVH5/6 are involved in leaf development by interacting with AS1-AS2 to repress KNAT1 and KNAT2” (Communications Biology, 2023).

The labels stand for the following.
T1: MBP-KYP recombinant protein (Arabidopsis thaliana, UniProt Q8GZB6 1-624)
T1 construct: KRYPTONITE (KYP/SUVH4), Arabidopsis thaliana; KYP CDS cloned into the pMAL-c5v vector; The purification is not described; source: E. coli BL21(DE3), recombinant protein
T1 sequence (looked up): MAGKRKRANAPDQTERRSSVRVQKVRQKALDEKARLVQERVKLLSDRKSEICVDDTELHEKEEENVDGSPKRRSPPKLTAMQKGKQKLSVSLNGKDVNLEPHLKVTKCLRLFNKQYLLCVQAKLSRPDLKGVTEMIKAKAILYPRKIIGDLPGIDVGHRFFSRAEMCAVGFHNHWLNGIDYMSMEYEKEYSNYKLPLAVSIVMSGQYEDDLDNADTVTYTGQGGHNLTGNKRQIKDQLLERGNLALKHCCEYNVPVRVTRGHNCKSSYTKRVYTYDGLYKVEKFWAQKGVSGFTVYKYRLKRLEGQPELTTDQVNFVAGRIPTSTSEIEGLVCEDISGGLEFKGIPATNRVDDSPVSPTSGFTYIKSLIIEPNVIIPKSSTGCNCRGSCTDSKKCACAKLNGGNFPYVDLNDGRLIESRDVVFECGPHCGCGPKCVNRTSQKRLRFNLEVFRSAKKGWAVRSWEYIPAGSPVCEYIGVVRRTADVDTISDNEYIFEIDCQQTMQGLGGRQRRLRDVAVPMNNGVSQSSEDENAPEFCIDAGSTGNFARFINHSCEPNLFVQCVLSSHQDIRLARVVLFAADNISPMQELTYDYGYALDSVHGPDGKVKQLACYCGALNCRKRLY

B1: maltose-binding protein (MBP) fused AS1 (MBP-AS1) (natural protein, Arabidopsis thaliana, UniProt O80931 1-367, looked up)
chain: MKERQRWSGEEDALLRAYVRQFGPREWHLVSERMNKPLNRDAKSCLERWKNYLKPGIKKGSLTEEEQRLVIRLQEKHGNKWKKIAAEVPGRTAKRLGKWWEVFKEKQQREEKESNKRVEPIDESKYDRILESFAEKLVKERSNVVPAAAAAATVVMANSNGGFLHSEQQVQPPNPVIPPWLATSNNGNNVVARPPSVTLTLSPSTVAAAAPQPPIPWLQQQQPERAENGPGGLVLGSMMPSCSGSSESVFLSELVECCRELEEGHRAWADHKKEAAWRLRRLELQLESEKTCRQREKMEEIEAKMKALREEQKNAMEKIEGEYREQLVGLRRDAEAKDQKLADQWTSRHIRLTKFLEQQMGCRLDRP
notes: source: E. coli BL21(DE3), recombinant protein
B2: maltose-binding protein (MBP) fused AS2 (MBP-AS2) (natural protein, Arabidopsis thaliana, UniProt O04479 1-199, looked up)
chain: MASSSTNSPCAACKFLRRKCQPECVFAPYFPPDQPQKFANVHKVFGASNVTKLLNELHPSQREDAVNSLAYEADMRLRDPVYGCVGVISLLQHQLRQLQIDLSCAKSELSKYQSLGILAATHQSLGINLLAGAADGTATAVRDHYHHHQFFPREQMFGGLDVPAGNNYDGGILAIGQITQFQQPRAAAGDDGRRTVDPS
notes: as for B1

Assay [1] addresses T1, MBP-KYP recombinant protein. Briefly: quartz crystal microbalance (QCM); AffinixQN QCM biosensor; first protein immobilised on the Au electrode until saturation (AS1 for the AS1-KYP pair), second protein injected repeatedly; 50 mM Tris-HCl, 150 mM NaCl, 1 mM DTT, 25 °C; Langmuir equation; three replicates. Particulars: both partners purified.
Assay [2] addresses B1. The assay is described as above. Particulars: both partners purified.

Consider B1, for which the Kd – broadly, the free concentration of one partner at which half of the binding sites on the other are occupied at equilibrium, for simple one-to-one binding – in assay [1] was 33.6 µM. Turning to B2, the figures for the equilibrium dissociation constant (Kd) in assay [1] and in assay [2] were 18.6 µM and 25.3 µM, respectively.
